Assay results: publication PMC8568140, “Assembly of infectious Kaposi’s sarcoma-associated herpesvirus progeny requires formation of a pORF19 pentamer” (PLoS Biology, 2021)
Numbering of substitutions follows the chain as printed. Names may count otherwise.

Columns and labels:
[1] = target: Baculovirus-produced KSHV capsids lacking the portal protein pORF43, Q2HRA7;Q2HRB6; assay: western blot of gradient-purified capsids (capsid assembly assay in insect cells), band intensity quantified; settings: 3 independent biological replicates; capsid loading normalized to pORF25-V5 and pORF26; parent: est. 100; read off a plot
[2] = target: the molecule itself; assay: crystal structure; hanging drop, 18°C, 0.1 M HEPES pH 7.5, 1.69 M lithium acetate (native, P212121, 2.6 Å); selenomethionine derivative in 0.1 M MES pH 7.4, 2 M lithium acetate (P21, P6322)
[3] = target: the molecule itself; assay: AUC; sedimentation velocity, 40,000 rpm, 20°C, LiAc buffer with 50 mM HEPES pH 7.5 and 0.5 M lithium acetate; interface mutants at 127 μM, oxidized pORF19_(KCTD)CC at 11 μM

**Q.** “GFP-tagged wt pORF19 (ORF19-GFP) of KSHV V463W; L465Y” was tested. Which percent of parent (% of wt pORF19) [1] did it give?
**A.** Its percent of parent (% of wt pORF19) is 91.

**Q.** For “GFP-tagged wt pORF19 (ORF19-GFP) of KSHV loop (156MNQNQ160 replaced by a flexible linker)”, which percent of parent (% of wt pORF19) [1] is on record?
**A.** The percent of parent (% of wt pORF19) was 92.

**Q.** Which percent of parent (% of wt pORF19) [1] does the source give for “GFP-tagged wt pORF19 (ORF19-GFP) of KSHV D173A; Q177A” here?
**A.** Its percent of parent (% of wt pORF19) is 93.

B1: KSHV pORF19 carboxyl-terminal domain (pORF19_(KCTD)) (domain or fragment)
chain: ASHRNFTVAIVPGDPHFSVDRDLRGELMPTLYMNQNQWLPSFGPWFISLTDNAMQRRVFPKELKGTVNFQNSTSLKLISHTLTTVASTTADFFADARHLTDTQAALCLVNAYFCQKTSRQLPATPDDLLADLPQKLDLLITQLKQESGPGDFSFTYSNPQERASLAPLNKESRYPTAFFQRHKLHAMMAKAGLFPHNKGTGAPGTAPAMDLVFAITSAMFGSDIPPFSAYQWNLRAGIVALEVFILAYGLLEFGQVARGHPNRRLNLVSLLGPKFQPGALPDPNAPMLKRGQLFSFISEHYIIPTLQANPNAPVSFIFPGIILAALEARSTVSHKQPGPFVNLTGSRFNEIFEILNQQLTFRDPLALLQARTALRLATEEGLDVLLSHPSPPTLLQEIIKSQFGGGDDYDRAYFMVLGCLPVVLAVV
notes: The His tag was removed with carboxypeptidase after a first SEC; Two of the three crystal forms (P21, P6322) were of a selenomethionine derivative; also called wt pORF19_(KCTD); KSHV pORF19 CTD; source: E. coli Rosetta (DE3), purified (HisTrap, SEC); not shown: His tag, C-terminal, cleaved
**Q.** For B1, which “stoichiometry N” value [2] is on record?
**A.** Its value is 5.

B2: oxidized pORF19_(KCTD)CC (KSHV pORF19 CTD with P137C and P461C) (domain or fragment)
chain: B1 chain with P15C, P339C
modifications: engineered inter-protomeric disulfide bond between the cysteines introduced at 137 and 461 (oxidized form)
notes: pORF19 of Kaposi's sarcoma-associated herpesvirus, residues 123 to 549, with two prolines changed to cysteines; The protomers of the oxidized form are covalently linked by the engineered disulfide bond; also called pentameric pORF19KCTDCC; source: E. coli Rosetta (DE3), purified as pORF19_(KCTD); oxidized with 2 mM GSSG in 0.5 M lithium acetate, then SEC (Superose 6 Increase); not shown: His tag, …
**Q.** Which “stoichiometry N” value [3] does the source give for B2 here?
**A.** The value was 5.
